Test results reported in paper PMC11784022, “An unusual activity of mycobacterial MutT1 Nudix hydrolase domain as a protein phosphatase regulates nucleoside diphosphate kinase function” (Journal of Bacteriology, 2024).

Molecular target: the molecule itself
Test: SDS-PAGE of samples not heated in sample buffer; MsmNDK-Pi (1 µg) in kinase buffer (50 mM Tris-HCl pH 8.0, 50 mM KCl, 10 mM MgCl2), 30°C, mixed with SDS-PAGE sample buffer without heating, 12% SDS-PAGE, Coomassie stain

B1: Mycobacterium smegmatis nucleoside diphosphate kinase (MsmNDK) (enzyme, Mycobacterium smegmatis mc2155, UniProt O85501 1-139, looked up)
chain: MTERTLVLIKPDGVKRQLVGEILSRIERKGLTLAALELKNVSDDLARQHYAEHADKPFFGSLLEFITSGPLVAAIVEGPRAVAAFRQIAGGTDPVEKAVPGTIRGDFALITQDNLVHGSDSPESAAREIALWFPGEATA
notes: Nucleoside diphosphate kinase of Mycobacterium smegmatis mc2155, locus MSMEG_4627; ORF amplified from genomic DNA and cloned into pProEx-Htb between NcoI and HindIII; also called MsmNDK-Pi; source: E. coli M15, purified (Ni-NTA, Superdex-75)
B1: binds.
